Experimental data reported in paper PMC8729806, “Chaperones mainly suppress primary nucleation during formation of functional amyloid required for bacterial biofilm formation†” (Chemical Science, 2021).
Blank lines part the entries; values can stand above or below the molecule they belong to.

What was measured:
[1] = molecular target: CsgA from E. coli (residues 21-151), without its signal sequence (E. coli) (UniProt P28307)
[2] = molecular target: Full-length FapC (residues 25-250) from Pseudomonas sp. UK4, without its signal sequence (Pseudomonas sp. UK4)
Chain of Full-length FapC (residues 25-250) from Pseudomonas sp. UK4, without its signal sequence (Pseudomonas sp. UK4) (P0DXF5 25-250 limits assumed): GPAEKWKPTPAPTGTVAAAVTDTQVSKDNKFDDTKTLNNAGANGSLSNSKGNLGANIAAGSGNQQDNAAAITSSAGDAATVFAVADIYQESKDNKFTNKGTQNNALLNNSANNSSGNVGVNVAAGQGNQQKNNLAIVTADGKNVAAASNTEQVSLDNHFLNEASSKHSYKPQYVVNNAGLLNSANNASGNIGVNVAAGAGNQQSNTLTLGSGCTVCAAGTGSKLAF

[3] = molecular target: CsgA from E. coli (residues 21-151), without its signal sequence (E. coli, UniProt P28307 21-151); experiment: cell-based or functional assay
Chain of CsgA from E. coli (residues 21-151), without its signal sequence (P28307 21-151): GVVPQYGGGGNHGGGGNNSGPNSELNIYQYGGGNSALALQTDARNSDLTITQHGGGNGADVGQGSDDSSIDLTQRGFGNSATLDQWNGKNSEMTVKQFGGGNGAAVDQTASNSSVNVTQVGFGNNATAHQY

Chain of CsgA from E. coli (residues 21-151), without its signal sequence (E. coli) (P28307 21-151): as above

Molecule: Bri2 BRICHOS monomer (M-Bri2) (domain or fragment)
fold reduction of the primary nucleation rate constant kn of spontaneous CsgA fibrillation (ThT kinetics, Amylofit), by 1 μM Bri2 monomer (fold reduction) [1]: 1000
fold reduction of the primary nucleation rate constant kn of spontaneous FapC fibrillation (ThT kinetics, Amylofit), by 6 μM Bri2 monomer (fold reduction) [2]: 40

Molecule: Bri2 BRICHOS oligomer (O-Bri2) (from UniProt Q9Y287 137-231) (domain or fragment)
fold reduction of the primary nucleation rate constant kn of spontaneous CsgA fibrillation (ThT kinetics, Amylofit), by 1 μM Bri2 oligomer (fold reduction) [1]: 100000
fold reduction of the primary nucleation rate constant kn of spontaneous FapC fibrillation (ThT kinetics, Amylofit), by 6 μM Bri2 oligomer (fold reduction) [2]: 10

Molecule: DNAJB6 mutant F91L, used as pseudowildtype (from UniProt O75190 1-326) (natural protein)
fold reduction of the primary nucleation rate constant kn of spontaneous CsgA fibrillation (ThT kinetics, Amylofit), by 0.12 μM DNAJB6 (fold reduction) [1]: 1e+07
fold reduction of the primary nucleation rate constant kn of spontaneous FapC fibrillation (ThT kinetics, Amylofit), by 0.6 μM DNAJB6 (fold reduction) [2]: 1000

Other lines, results leading:

fold reduction of the primary nucleation rate constant kn of spontaneous CsgA fibrillation (ThT kinetics, Amylofit), by 1 μM CsgC [3]: ~100000 fold reduction
B1: CsgC (natural protein, UniProt P52107 9-110, looked up)
chain: ALSSQITFNTTQQGDVYTIIPEVTLTQSCLCRVQILSLREGSSGQSQTKQEKTLSLPANQPIALTKLSLNISPDDRVKIVVTVSDGQSLHLSQQWPPSSEKS
modifications: Alexa Fluor 546 label (peptide array only)

fold reduction of the primary nucleation rate constant kn of spontaneous FapC fibrillation (ThT kinetics, Amylofit), at 50 μM S100A9 (fold reduction) [2]: 6
fold reduction of the primary nucleation rate constant kn of spontaneous CsgA fibrillation (ThT kinetics, Amylofit), at 4 μM S100A9 [3]: 20 fold reduction
B2: S100A9 (natural protein, human, UniProt P06702 1-114, looked up)
chain: MTCKMSQLERNIETIINTFHQYSVKLGHPDTLNQGEFKELVRKDLQNFLKKENKNEKVIEHIMEDLDTNADKQLSFEEFIMLMARLTWASHEKMHEGDEGPGHHHKPGLGEGTP
modifications: Alexa Fluor 546 label (peptide array only)
